B1: human MGDF-3 (amino acids 1-265 of SEQ ID NO: 27) (ligand)
chain: SPAPPACDLRVLSKLLRDSHVLHSRLSQCPEVHPLPTPVLLPAVDFSLGEWKTQMEETKAQDILGAVTLLLEGVMAARGQLGPTCLSSLLGQLSGQVRLLLGALQSLLGTQLPPQGRTTAHKDPNAIFLSFQHLLRGKDFWIVGDKLHCLSQNYWLWASEVAAGIQSQDSWSAEPNLQVPGPNPRIPEQDTRTLEWNSWTLSWTLTQDPRSPGHFLRNIRHRLPATQPPAWIFSFPNPSSYWTVYALPSSTHLAHPCGPAPPPAS
B2: human MGDF-2 (amino acids 1-174 of SEQ ID NO: 25) (ligand)
chain: SPAPPACDLRVLSKLLRDSHVLHSRLSQCPEVHPLPTPVLLPAVDFSLGEWKTQMEETKAQDILGAVTLLLEGVMAARGQLGPTCLSSLLGQLSGQVRLLLGALQSLLGTQLPPQGRTTAHKDPNAIFLSFQHLLRGKVRFLMLVGGSTLCVR

Experiments:
[1] = target: human Mpl receptor, full length, on cells (human) (UniProt P40238)
[2] = target: murine Mpl receptor, full length, expressed on 32D cells (subclone 1A6.1) (murine) (UniProt Q08351)
[3] = target: murine Mpl receptor, full length, expressed on 32D cells (subclone 1A6.1) (murine) (UniProt Q08351); remark: listed apart in the source
[4] = target: human Mpl receptor, full length, on cells (human, UniProt P40238); test: cell-based or functional assay
[5] = target: murine Mpl receptor, full length, expressed on 32D cells (subclone 1A6.1) (murine, UniProt Q08351); test: cell-based or functional assay

| Molecule | Human Meg assay (units/mg) [1] [units/mg] | 1A6.1 assay (units/mg) [2] [units/mg] | 1A6.1 cell growth, fraction diluted 1:45000 (cells per well) [3] | Megakaryocytes per Well (-mur-MPL-X) [4] [megakaryocytes per well] | U/ml (- mur-MPL-X), 1A6.1 cells [5] [U/ml] |
| --- | --- | --- | --- | --- | --- |
| 31 kd canine Mpl ligand purified from aplastic canine plasma | 5.7e+09 | 6.52e+09 | – | – | – |
| 25 kd canine Mpl ligand purified from aplastic canine plasma | 1.4e+10 | 1.05e+10 | 6000 | – | – |
| B1 | – | – | – | 2 | 0 |
| B2 | – | – | – | 100 | 12800 |
